One substance from patent EP1780277A1 can be followed below.

In this experiment the target is intact IFNAR1 from human cells (human) (UniProt P17181). Briefly: cell-based or functional assay.
Sequence of UniProt P17181 (P17181 28-557): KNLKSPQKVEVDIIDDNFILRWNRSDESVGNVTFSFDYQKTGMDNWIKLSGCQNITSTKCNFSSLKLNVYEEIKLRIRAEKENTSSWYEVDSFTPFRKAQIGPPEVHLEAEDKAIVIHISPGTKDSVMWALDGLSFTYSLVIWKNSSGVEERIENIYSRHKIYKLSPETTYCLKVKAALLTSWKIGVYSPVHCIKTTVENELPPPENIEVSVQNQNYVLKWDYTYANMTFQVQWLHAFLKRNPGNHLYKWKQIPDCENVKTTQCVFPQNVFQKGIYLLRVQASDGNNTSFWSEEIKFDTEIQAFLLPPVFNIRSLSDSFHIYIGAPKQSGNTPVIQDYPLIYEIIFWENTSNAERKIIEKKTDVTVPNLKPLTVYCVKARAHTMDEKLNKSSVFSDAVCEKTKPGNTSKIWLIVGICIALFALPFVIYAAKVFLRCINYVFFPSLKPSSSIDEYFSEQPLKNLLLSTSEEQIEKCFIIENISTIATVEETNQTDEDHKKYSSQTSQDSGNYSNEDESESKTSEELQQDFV

Consider “IR1B4/PRMT protein of human U266S cells (from UniProt Q99873 11-371)”, for which the growth inhibitory effect of IFN-β on myeloma cells (Alamar Blue), with antisense-1 oligonucleotide against IR1B4 was under 5 fold.
